Measured values: US8409859B2, “Differentiation of non-embryonic stem cells to cells having a pancreatic phenotype” (Regents of the University of Minnesota, priority 2005, dated 2013)

B1: GDF11: member of the BMP/TGFbeta superfamily (protein, UniProt O95390 299-407, looked up)
Growth/differentiation factor …: NLGLDCDEHSSESRCCRYPLTVDFEAFGWDWIIAPKRYKANYCSGQCEYMFMQKYPHTHLVQQANPRGSAGPCCTPTKMSPINMLYFNDKQQIIYGKIPGMVVDRCGCS
B2: FGF10: FGF produced by mesenchymal cells, used at about 100 ng/mL (protein, UniProt O15520 38-208, looked up)
Fibroblast growth factor 10: QALGQDMVSPEATNSSSSSFSSPSSAGRHVRSYNHLQGDVRWRKLFSFTKYFLKIEKNGKVSGTKKENCPYSILEITSVEIGVVAVKAINSNYYLAMNKKGKLYGSKEFNNDCKLKERIEENGYNTYASFNWQHNGRQMYVALNGKGAPRRGQKTRRKNTSAHFLPMVVHS

System: rat MAPCs
Assay: Cytokine mediated differentiation of rat MAPCs, Q-RT-PCR and cell survival
Type: cell-based
Procedure: For Q-RT-PCR reactions described herein, the primer sequences are presented in Tables 3-5 and the following protocols were used: RNA was extracted from the cells with the aid of the RNeasy Mini Kit (Qiagen; Valencia Calif.), followed by a DNase Treatment with DNA-Free™ (Ambion, Austin, Tex.). The RNA was reverse transcribed with TaqMan (Applied Biosystems, Foster City, Calif.; Step 1 (Incubation): 25° C., 10 min; Step 2 (RT): 48° C., 30 min; Step 3 (RT Inactivation): 95° C., 10 min).
Following reverse transcription, Quantitative Real Time PCR (Q-RT-PCR) was performed as follows: Step 1: 50° C., 2 min (Incubation); Step 2: 95° C., 10 min (Taq activation); Step 3: 95° C., 15 sec (Denaturation) followed by 60° C., 1 min (Extension) and repeat for 40 cycles; Step 4: 95° C., 15 sec (Dissociation); Step 5: 60° C., 20 sec (Melting curve); Step 6: 95° C., 15 sec.
In an initial series of studies, the effect of cell density (about 10^4-10^5 cells/cm^2), ECM component (fibronectin, collagen, matrigel) and different concentrations (10-100 ng/mL) of bFGF (10-100 ng/mL), FGF2 (10-100 ng/mL), Activin A (e.g., about 10 ng/mL to about 100 ng/mL), BMP4 (e.g., about 10 ng/mL to about 50 ng/mL), retinoic acid (about 10^−6M), EGF (e.g., about 10 to about 100 ng/mL), FGF10 (e.g., about 50 to about 150 ng/mL, including about 100 ng/mL), HGF (e.g., about 10 to about 100 ng/mL), GDF11 (e.g., about 50 to abut 150 ng/mL), cyclopamine (e.g., about 10 μM), anti-SHH antibody (Ab; e.g., about 10 μg/mL), nicotinamide (e.g., 5 μM to about 50 μM, including about 10 μM), exendin 4 (about 5 nM to about 50 nM, including about 10 nM), betacellulin (e.g., about 50 to abut 150 ng/mL) alone or in combinations of 2 or 3 and in different temporal sequences, on the induction of transcription factors, insulin, glucagon and somatostatin expression levels after 6, 12 and 18 days using Q-RT-PCR was determined.
Subsequent addition of factors believed to play a role in further proliferation and differentiation from pancreas-committed cells to mature endocrine pancreas, including EGF (e.g., about 50 ng/mL), HGF (e.g., about 50 ng/mL) and FGF10 (e.g., about 100 ng/mL), either alone or in combination was tested. […] Further optimization was obtained by adjusting the duration of the different steps along the differentiation course, as well addition of β-cellulin (50 ng/mL).

Molecule | Ins1 and Ins2 mRNA levels (GDF11 added) | cell survival (activin-A, BMP4 and cyclopamine or anti-SHH Ab withdrawn after d6, cells then maintained with the factor)
B1 | a further increase | –
B2 | – | not
